Literature values as cited in paper PMC12564422.

Biological target: EGFR (epidermal growth factor receptor) (UniProt P00533)
Assay: cited
Conditions: 3'-thiol; about 50 nm AuNPs, resuspended in water; aptamer M and Atto 1.2e-7 M, EGFR 880 pM, 1 h incubation; Tris-EDTA buffer listed among materials; salt, pH and …

## GGACGGATTTAATCGCCGTAGAAAAGCATGTCAAAGCCGGAACCGTCC [aptamer M (EGFR-specific)]
  Kd: 2.4 nM
